{
  "source": "paper PMC10873621",
  "target": "RNF20 (UniProt Q5VTR2)",
  "assay": "co-IP with anti-Myc, anti-Flag blot",
  "settings": "reference: Flag-LSD1-WT; sites T810,S817,T841,S849,S851",
  "data": [
    {"substance": "LSD1 (from UniProt O60341) Flag-LSD1-5A", "values": [
      {"measurement": "binding against the reference", "result": "weaker"}
    ]}
  ]
}
